# Experimental data reported in publication PMC7774078.
# Substrate: NS(=O)(=O)c1cc(C(=O)O)c(NCc2ccco2)cc1Cl
# Test: cells, lysate or membranes
# Details: ATP, Mg2+
protein,measurement,value
multidrug resistance-associated protein 4 (MRP4) (Homo sapiens) (protein) MLPVYQEVKPNPLQDANLCSRVFFWWLNPLFKIGHKRRLEEDDMYSVLPEDRSQHLGEELQGFWDKEVLRAENDAQKPSLTRAIIKCYWKSYLVLGIFTLIEESAKVIQPIFLGKIINYFENYDPMDSVALNTAYAYATVLTFCTLILAILHHLYFYHVQCAGMRLRVAMCHMIYRKALRLSNMAMGKTTTGQIVNLLSNDVNKFDQVTVFLHFLWAGPLQAIAVTALLWMEIGISCLAGMAVLIILLPLQSCFGKLFSSLRSKTATFTDARIRTMNEVITGIRIIKMYAWEKSFSNLITNLRKKEISKILRSSCLRGMNLASFFSASKIIVFVTFTTYVLLGSVITASRVFVAVTLYGAVRLTVTLFFPSAIERVSEAIVSIRRIQTFLLLDEISQRNRQLPSDGKKMVHVQDFTAFWDKASETPTLQGLSFTVRPGELLAVVGPVGAGKSSLLSAVLGELAPSHGLVSVHGRIAYVSQQPWVFSGTLRSNILFGKKYEKERYEKVIKACALKKDLQLLEDGDLTVIGDRGTTLSGGQKARVNLARAVYQDADIYLLDDPLSAVDAEVSRHLFELCICQILHEKITILVTHQLQYLKAASQILILKDGKMVQKGTYTEFLKSGIDFGSLLKKDNEESEQPPVPGTPTLRNRTFSESSVWSQQSSRPSLKDGALESQDTENVPVTLSEENRSEGKVGFQAYKNYFRAGAHWIVFIFLILLNTAAQVAYVLQDWWLSYWANKQSMLNVTVNGGGNVTEKLDLNWYLGIYSGLTVATVLFGIARSLLVFYVLVNSSQTLHNKMFESILKAPVLFFDRNPIGRILNRFSKDIGHLDDLLPLTFLDFIQTLLQVVGVVSVAVAVIPWIAIPLVPLGIIFIFLRRYFLETSRDVKRLESTTRSPVFSHLSSSLQGLWTIRAYKAEERCQELFDAHQDLHSEAWFLFLTTSRWFAVRLDAICAMFVIIVAFGSLILAKTLDAGQVGLALSYALTLMGMFQWCVRQSAEVENMMISVERVIEYTDLEKEAPWEYQKRPPPAWPHEGVIIFDNVNFMYSPGGPLVLKHLTALIKSQEKVGIVGRTGAGKSSLISALFRLSEPEGKIWIDKILTTEIGLHDLRKKMSIIPQEPVLFTGTMRKNLDPFNEHTDEELWNALQEVQLKETIEDLPGKMDTELAESGSNFSVGQRQLVCLARAILRKNQILIIDEATANVDPRTDELIQKKIREKFAHCTVLTIAHRLNTIIDSDKIMVLDSGRLKEYDEPYVLLQNKESLFYKMVQQLGKAEAAALTETAKQVYFKRNYPHIGHTDHMVTNTSNGQPSTLTIFETAL,Km,27.96 µM
